Measurements reported in publication doi:10.1101/325712 (bioRxiv, 2018).
Square brackets hold non-standard residues; d marks the D form. Ends that are not written are not given here. pS = N[C@@H](COP(=O)(O)O)C(=O)O

What was measured:
[1] = target: human HspB1 ACD (residues 84-170) (human, UniProt P04792 84-170); assay: crystal structure
[2] = target: T1, human FLNC domains 18-21 (residues 1943-2408), EEF-tagged (human, UniProt Q14315 1943-2408); assay: native MS
T1 sequence: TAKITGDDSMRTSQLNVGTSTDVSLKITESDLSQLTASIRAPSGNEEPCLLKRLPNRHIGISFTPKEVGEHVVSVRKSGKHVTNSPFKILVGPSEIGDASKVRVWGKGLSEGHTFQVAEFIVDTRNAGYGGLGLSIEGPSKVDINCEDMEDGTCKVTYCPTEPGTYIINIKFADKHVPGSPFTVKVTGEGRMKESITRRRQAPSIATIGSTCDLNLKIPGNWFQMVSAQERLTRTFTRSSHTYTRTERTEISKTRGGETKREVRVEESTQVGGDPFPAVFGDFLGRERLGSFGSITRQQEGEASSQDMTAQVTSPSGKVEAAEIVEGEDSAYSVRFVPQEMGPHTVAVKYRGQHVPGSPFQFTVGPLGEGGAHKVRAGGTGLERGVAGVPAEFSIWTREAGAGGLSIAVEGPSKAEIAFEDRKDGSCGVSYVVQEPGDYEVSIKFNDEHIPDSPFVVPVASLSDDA

human HspB1 ACD (residues 84-170), sequence (P04792 84-170): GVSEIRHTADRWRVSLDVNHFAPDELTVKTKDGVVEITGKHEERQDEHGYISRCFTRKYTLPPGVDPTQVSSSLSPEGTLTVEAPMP

Binder	binding result [1]	Kd [2] [µM]
ALSRQL[pS]SGVSEI [HspB1 peptide residues 76-88 phosphorylated at Ser82]	binds	
Ac-QLSSGVSEI [HspB1 peptide residues 80-88, unphosphorylated]		130 ± 17
Ac-QLSSGVSEI (not fully specified) [HspB1 peptide residues 80-88, phosphorylated]		110 ± 10
